Measured values as given in patent US20250154215A1, “PHARMACEUTICAL COMPOSITION FOR TREATING COLITIS OR COLORECTAL CANCER COMPRISING COLON-TARGETED S100A8/A9-DERIVED SPECIFIC PEPTIDE” (Industry-University Cooperation Foundation Hanyang …, priority 2023, published 2025).
“Also recorded” adds a separate entry of the source.

Legend:
[1] = DSS-induced chronic colitis mouse model; format: in vivo, mice
Description: DSS-induced acute or chronic colitis and AOM/DSS CRC mouse models were prepared using 6-week-old C57BL/6 female mice (Samtako Bio, Osan, Korea). To assess the induction of acute colitis, mice were exposed ad libitum to 3% (w/v) dextran sodium sulfate (molecular weight: 36-50 kDa, MP Biomedicals, Santa Ana, CA, USA) dissolved in drinking water. The mouse models are illustrated in FIGS. 7A, 5E, and 6A. DSS solutions were prepared every two days. […] The humane endpoint for weight loss (requiring euthanasia) was 20% (compared to the original body weight of an animal). Without an approved exception request, body weight loss could not exceed 20%.
The clinical score of colitis was obtained by measuring body weight, fecal occult blood or total blood loss, and stool consistency every other day during the induction of colitis. The clinical score were assessed by two trained investigators who were randomly selected. For immunohistochemical analysis of tissue sections, mouse distal colon tissues were fixed in 10% formalin and embedded in paraffin. Paraffin sections ([…]) were cut and stained with H&E. Histopathological scoring was performed by a certified pathologist (Min-Kyung Kim, Department of Pathology, Kim Min-Kyung Pathology Clinic, Seoul, Korea) who scored each organ section independently without prior knowledge of the treatment group.
Next, the therapeutic effect of rCT-S100A8/A9 on chronic colitis was confirmed. Chronic DSS colitis was induced by three cycles of DSS+water combination, and intraperitoneal rCT-S100A8/A9 injection was performed once a day for three consecutive days of DSS administration in each cycle.

OxaR-HCT116 = test: Co-IP and Western blot in parental and OxaR-HCT116 cells stimulated with rS100A8/9; format: cell-based
Description: FIGS. 11A-11F show rCT-S100A8/A9 ameliorated oxaliplatin-resistant HCT116 xenograft tumor growth. […] Each vertical bar represents the mean±SD of cell viability at each dose. Data is shown as the mean±SD of six experiments. […] WCLs were used for IB including αTLR4, αRAGE, αS100A8, αS100A9, or αActin. […] HCT116 cells were injected subcutaneously into the flanks of nude mice. Tumor length and width were measured using calipers, and tumor volume was calculated every 3 days for 30 days. Representative images of tumors from mice treated with rCT-S100A8/9 on day 15 (middle). Statistical significance was determined by two-way analysis of variance (ANOVA) with Tukey's post hoc test. *P<0.05, ***P<0.001 compared to rVehicle. […] WCLs were used for IB including αTLR4, αRAGE, αS100A8, αS100A9, or αActin. […] Tumors were stained with H&E. Data is representative of seven independent experiments with similar results (FIGS. 11B, 11C, and 11E);
293T, BMDMs, and THP-1 cells were treated as indicated and processed for analysis by GST pulldown, Western blotting, and co-IP analysis. For GST pulldown, 293T cells were harvested and lysed in an NP-40 buffer including a complete protease inhibitor cocktail (Roche, Basel, Switzerland). After centrifugation, the supernatant was pre-cleared using protein A/G beads for two hours at 4° C. The pre-cleared lysates were mixed with a 50% slurry of glutathione-conjugated Sepharose beads (Amersham Biosciences, Amersham, UK), and binding reactions were performed for four hours at 4° C. by incubating the lysates at 4° C. The precipitate was extensively washed with a lysis buffer. Proteins bound to the glutathione beads were eluted by boiling for five minutes in a sodium dodecyl sulfate (SDS) loading buffer. For IP, cells were harvested and lysed in an NP-40 buffer supplemented with a complete protease inhibitor cocktail (Roche, Switzerland). After pre-clearing with protein A/G agarose beads for one hour at 4° C., whole cell lysates were used for IP using the indicated antibodies. Typically, 1 to […] of a commercial antibody was added to 1 ml of the cell lysate, and the resulting mixture was incubated for 8 to 12 hours at 4° C. After adding protein A/G agarose beads for six hours, immunoprecipitates were extensively washed with a lysis buffer and eluted with an SDS loading buffer by boiling for five minutes. For immunoblotting (IB), polypeptides were analyzed by SDS-polyacrylamide gel electrophoresis and transferred to polyvinylidene difluoride (PVDF) membranes (Bio-Rad, Hercules, CA, USA). Immunodetection was performed using specific antibodies. Antibody binding was visualized by chemiluminescence (ECL; Millipore, Burlington, MA, USA) and detected using a Vilber chemiluminescence analyzer (Fusion SL 3; Vilber Lourmat). […]

[2] = set-up: species or system BALB/c mice; settings: mouse, in vivo
Description: FIGS. 12A-12E show biological effects of rCT-S100A8/9 in tumor-bearing mice. […] Each vertical bar represents the mean±SD of cell viability at each dose. Data is shown as the mean±SD of six experiments. […] HCT116 cells were injected subcutaneously into the flanks of BALB/c mice as described in the Methods section. Mice were administered one or two intraperitoneal doses and sacrificed on day 5. Their expression was assessed by IB in various organs of mice. WCLs were used for IB including αActin. Data is representative of four independent experiments with similar results. […] E-cadherin, N-cadherin, and β-catenin staining of the tumors. […] IgG levels specific for rCT-S100A8/9 or ovalbumin (OVA) were measured using ELISA. […] Serum cytokine levels were measured 30 days after administration. […]
Cytokine content was analyzed in cell culture supernatants and mouse sera using the BD OptEIA ELISA set (BD Pharmingen) to detect TNF-α, IL-6, IL-1β, and IL-18. […]
A major concern with protein therapeutics derived from endogenous human proteins is that they may induce strong anti-therapeutic antibody responses and stimulate undesirable immune responses. […] Therefore, the immunogenicity of rCT-S100A8/A9 was assessed by measuring the production of anti-rCT-S100A8/A9 antibodies in mice immunized with the peptide according to the present invention. […]

[3] = DSS-induced acute colitis mouse model; format: in vivo, mice; settings: treatment for three consecutive days
[4] = parental and OxaR-HCT116 cells, Western blot

B1: TWYKIAFQRNRKTWYKIAFQRNRKTWYKIAFQRNRKTWYKIAFQRNRKTWYKIAFQRNRKGGFLVIKGGAHKSHKGGITIITFGGGHHGGFLVIKGGAHKSHKGGITIITFGGGHHGGFLVIKGGAHKSHKGGITIITFGGGHHGG (protein)
chain: TWYKIAFQRNRKTWYKIAFQRNRKTWYKIAFQRNRKTWYKIAFQRNRKTWYKIAFQRNRKGGFLVIKGGAHKSHKGGITIITFGGGHHGGFLVIKGGAHKSHKGGITIITFGGGHHGGFLVIKGGAHKSHKGGITIITFGGGHHGG
modifications: N-terminal 6xHis tag
colon damage (H&E staining) ([1]; 2.5% DSS chronic colitis): decreased; also recorded: alleviated | colon length ([1]; 2.5% DSS chronic colitis): recovered | survival rates ([1]; DSS-induced chronic colitis): significantly increased | body weight loss ([1]; i.p. once a day for three consecutive days per DSS cycle): significantly reduced body weight loss | macrophage polarization (M1/M2 markers) ([1]; macrophages and colonic lysates, real-time PCR): not affected | S100-PRR interactions (OxaR-HCT116; OxaR-HCT116, recombinant S100A8/A9 stimulated, 10, 20, 50 μg/ml): inhibited by increasing the concentration of rCT-S100A8/A9 | phosphorylation of EGFR, AKT, and NF-κB (OxaR-HCT116; parental and OxaR CRC cells): decreased | expression of epithelial marker (E-cadherin) (OxaR-HCT116; [4]): increase | expression of mesenchymal markers (N-cadherin and vimentin) (OxaR-HCT116; [4]): significant decrease | production of pro-inflammatory cytokines [2]: negligible | survival rate by treatment frequency [3]: highest survival rate
